Publication PMC11303751, “Novel enzymatic route to the synthesis of C-8 hydroxyflavonoids including flavonols and isoflavones” (Scientific Reports, 2024)

Tests used:
fdeE = target: T1, fdeE (Herbaspirillum seropedicae, UniProt D8J0W9); test: UV-Vis spectrum of purified enzyme; type: binding; settings: FAD co-purified with the enzyme; none added
T1 construct: gene Hsero_1007; codon-optimised ORF in pRhaBAD_12, expressed in E. coli BL21(DE3), purified by Ni IMAC (HisTrap), desalted
T1 sequence (D8J0W9 1-376): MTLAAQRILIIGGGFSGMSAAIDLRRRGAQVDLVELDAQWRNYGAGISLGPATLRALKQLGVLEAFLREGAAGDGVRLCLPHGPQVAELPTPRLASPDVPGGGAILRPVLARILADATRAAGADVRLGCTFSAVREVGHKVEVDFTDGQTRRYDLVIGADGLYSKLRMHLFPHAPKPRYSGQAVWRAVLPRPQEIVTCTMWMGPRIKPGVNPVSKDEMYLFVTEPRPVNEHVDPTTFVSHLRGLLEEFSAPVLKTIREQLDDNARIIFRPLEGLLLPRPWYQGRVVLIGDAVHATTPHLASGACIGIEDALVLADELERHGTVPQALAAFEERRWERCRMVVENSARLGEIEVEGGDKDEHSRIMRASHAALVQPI

purified protein = substrate: O=c1cc(-c2ccc(O)cc2)oc2cc(O)cc(O)c12; test: purified protein; settings: 1 mM NADPH, GDH/glucose regeneration, 25 mM DTT, 25 mM sodium phosphate pH 7.5, initial substrate 0.05 mM, from a single progress curve
[1] = substrate: O=c1c(O)c(-c2ccc(O)c(O)c2)oc2cc(O)cc(O)c12; test: UPLC-DAD product-formation progress curve; type: biochemical, Herbaspirillum seropedicae; settings: 1 mM NADPH, GDH/glucose regeneration, 25 mM DTT, 25 mM sodium phosphate pH 7.5, initial substrate 0.05 mM, from a single progress curve
Text: (§1) UPLC-DAD product-formation progress curve on fdeE

[2] = substrate: O=C1C[C@@H](c2ccc(O)cc2)Oc2cc(O)cc(O)c21; test: UPLC-DAD product-formation progress curve; type: biochemical, Herbaspirillum seropedicae; settings: 1 mM NADPH, GDH/glucose regeneration, 25 mM DTT, 25 mM sodium phosphate pH 7.5, initial substrate 0.05 mM, from a single progress curve
Text: as §1

[3] = substrate: O=c1cc(-c2ccc(O)c(O)c2)oc2cc(O)cc(O)c12; test: UPLC-DAD product-formation progress curve; type: biochemical, Herbaspirillum seropedicae; settings: 1 mM NADPH, GDH/glucose regeneration, 25 mM DTT, 25 mM sodium phosphate pH 7.5, initial substrate 0.05 mM, from a single progress curve
Text: as §1

[4] = substrate: O=c1cc(-c2ccccc2)oc2cc(O)cc(O)c12; test: UPLC-DAD product-formation progress curve; type: biochemical, Herbaspirillum seropedicae; settings: 1 mM NADPH, GDH/glucose regeneration, 25 mM DTT, 25 mM sodium phosphate pH 7.5, initial substrate 0.05 mM, from a single progress curve
Text: as §1

In the case of `Cc1cc2nc3c(=O)[nH]c(=O)nc-3n(C[C@H](O)[C@H](O)[C@H](O)COP(=O)(O)OP(=O)(O)OC[C@H]3O[C@@H](n4cnc5c(N)ncnc54)[C@H](O)[C@@H]3O)c2cc1C` [FAD], the “UV-Vis spectrum of purified enzyme” value (fdeE) is reported as “UV–Vis spectrium of purified fdeE with absorption spectra characteristic for FAD absorbance”.

B1: fdeE (Herbaspirillum seropedicae SmR1) (protein)
chain: T1 sequence (D8J0W9 1-376)
notes: codon-optimised ORF in pRhaBAD_12, expressed in E. coli BL21(DE3), purified by Ni IMAC (HisTrap), desalted
Work on B1 yielded a Km (purified protein) of 20.2 µM, a Vmax (purified protein) of 4.02 µM/min and a kcat (purified protein) of 0.0532 s⁻¹. The kcat/Km (purified protein) was 2630 M⁻¹ s⁻¹, the Km [1] was 14.9 µM and the Vmax [1] was 0.512 µM/min. It also gave a kcat [1] of 0.00678 s⁻¹, a kcat/Km [1] of 450 M⁻¹ s⁻¹ and a Km [2] of 0.422 µM. It also gave a Vmax [2] of 2.09 µM/min, a kcat [2] of 0.0277 s⁻¹ and a kcat/Km [2] of 65500 M⁻¹ s⁻¹. It also gave a Km [3] of 51.8 µM, a Vmax [3] of 6.12 µM/min and a kcat [3] of 0.0811 s⁻¹. The kcat/Km [3] was 1570 M⁻¹ s⁻¹, the Km [4] was 431 µM and the Vmax [4] was 88.2 µM/min. For the same molecule, the kcat [4] was 1.17 s⁻¹ and the kcat/Km [4] was 2720 M⁻¹ s⁻¹.
